Reference: paper PMC6798120

How the values were obtained:
Test in all cases: flow cytometry on cells
[1] = target: MHV-A59 S protein I22A (mouse hepatitis virus A59)
[2] = target: MHV-A59 S protein R20A (mouse hepatitis virus A59)
[3] = target: MHV-A59 S protein Y15A/L160A (mouse hepatitis virus A59)

Substance soluble receptor mCEACAM1a[1,4] has a reduction of receptor binding against WT [1] of 83%, a reduction of receptor binding against WT [2] of 61% and a reduction of receptor binding against WT [3] of over 65%.
